We go through 72 sequences from the supplement of paper PMC10567573.

± gives the standard deviation.

The data set is described as follows: protein stability index of a GFP-peptide fusion (GPS, HEK-293T) (PSI 1-6); higher = more stable.
Setting [1] is: treatment: DMSO, c terminus: a fixed tail appended.
Setting [2] is: treatment: MLN4924 1 uM, 8 h, c terminus: a fixed tail appended.
The mark [3] stands for this setting: treatment: DMSO, c terminus: native.
The mark [4] stands for this setting: treatment: MLN4924 1 uM, 8 h, c terminus: native.
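Also: 24-mer peptide tiles fused after GFP, lentivirally expressed, FACS-sorted into six equal bins by GFP/DsRed ratio, decoded by Illumina sequencing, PSI is the read-weighted mean bin number.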

As to FFVITMIKIVLINSFGAILQGSLF [SLC29A1], the protein stability index under setting [1] worked out at 3.36 ± 0.093 and the protein stability index under setting [2] stood at 2.99 ± 0.12.

In the case of FHNLVSLNLNYNCISDELLENLCE [FBXO39], the protein stability index under setting [1] stood at 2.6 ± 0.18 and the protein stability index under setting [2] was determined as 2.66 ± 0.3.

In the case of FKLFFNGRPGIVAWTLINLSFAAK [DHCR7], the protein stability index stood at 3.03 ± 0.28 under setting [1] and 2.46 ± 0.31 under setting [2].

With FLDILRRADKNDDGKLSFEEFKAY [NECAB1], the protein stability index is, setting by setting: under setting [1], 2.83 ± 0.23; under setting [2], 2.93 ± 0.34.

FLENLDKSRKGELLKKSDLQKDF [PRIM1]: the protein stability index worked out at 4.7 ± 0.24 under setting [3] and 5.154 ± 0.05 under setting [4].

In the case of FLMRKCGWFVRELRVEFAAENYLS [FBXO33], the protein stability index under setting [1] was 3.06 ± 0.59 and the protein stability index under setting [2] turned out to be 2.8 ± 0.35.

Turning to FLQQSLERVYSLQHLDPQGAQELL [INTS4], the protein stability index turned out to be 1.91 ± 0.42 under setting [1] and 2.76 ± 0.54 under setting [2].

As to FPREHQFFEDGDVQRHLYLQDVIM [ZNF511], the protein stability index by setting is: under setting [1], 2.45 ± 0.085; under setting [2], 2.78 ± 0.28.

For the sequence FQKGQVTRDGFKLVMASLYHIYVA [HMOX1], the protein stability index was 2.83 ± 0.49 under setting [1] and 3.12 ± 0.97 under setting [2].

Consider FQTLQAIVSHFQKLFDVPSLNGVY [CEP70], for which the protein stability index stood at 2.36 ± 0.36 under setting [1] and 2.36 ± 0.4 under setting [2].

Consider FRDPIWSTWALYGRAVDQDKVLRF [MYORG], for which the protein stability index amounted to 2.12 ± 0.39 under setting [1] and 2.11 ± 0.15 under setting [2].

Take FSDSSLIEDSQALHKRPKLDSEYY [LURAP1L]: the protein stability index under setting [1] was determined as 3.86 ± 0.35 and the protein stability index under setting [2] came out at 3.9 ± 0.21.

As for FSPAKPKPSKELKPLLGSAVLGLL [MYORG], the protein stability index by setting is: under setting [1], 2.15 ± 0.53; under setting [2], 2.21 ± 0.17.

As for FSPDGPSRFRKAYKPEQPLVRLRG [LOXL2], the protein stability index was determined as 2.5 ± 0.58 under setting [1] and 3.39 ± 0.68 under setting [2].

For the sequence FTDFNATSALFWEQHDLVYGDWTS [CLPTM1], the protein stability index by setting is: under setting [1], 2.29 ± 0.67; under setting [2], 2.53 ± 0.27.

As to FTRKTLAEKKQELDKLRNEWASHT [SASS6], the protein stability index was found to be 3.15 ± 0.47 under setting [1] and 3.77 ± 0.6 under setting [2].

FVERVRKRGFEVVYMTEPIDEYCV [HSP90AB1] had a protein stability index under setting [2] of 2.53 ± 0.26.

For FVLLCFAIGALLVCYHYYADWFMS [TMEM40], the protein stability index runs as follows: under setting [1], 2.16 ± 0.31; under setting [2], 2.19 ± 0.39.

FVSKIRAVINDIANLPVPTIAAID [AUH]: the protein stability index turned out to be 2.42 ± 1.6 under setting [1] and 2.04 ± 0.54 under setting [2].

As to GAAGRSQEPEVPCAAVLPGKPGDR [RSPH3], the protein stability index was found to be 5.31 ± 0.29 under setting [1] and 5.31 ± 0.2 under setting [2].

In the case of GAGLLSSISELKHALSGHAKVKPF [TPH1], the protein stability index reads like this: under setting [1], 2.86 ± 0.095; under setting [2], 3.02 ± 0.12.

For GALQIEQSEESDQGKYECVATNSA [PTPRD], the protein stability index is, setting by setting: under setting [1], 5.18 ± 0.097; under setting [2], 5.39 ± 0.31.

Turning to GDRLNVEVDAAPPVDLNKILEDMR [KRT36], the protein stability index reads like this: under setting [1], 4.24 ± 0.4; under setting [2], 4.323 ± 0.035.

Regarding GEEQTQNPYTELLVLKAHHDIVRF [WDR41], the protein stability index runs as follows: under setting [1], 2.51 ± 0.32; under setting [2], 2.79 ± 0.3.

As for GEHKDRIERQWGNLLGEGQHKCDE [ZSCAN9], the protein stability index runs as follows: under setting [1], 4.88 ± 0.4; under setting [2], 4.93 ± 0.14.

Take GEVEEEADSCFGDDEDDSGTEES [CDC34]: the protein stability index under setting [3] amounted to 5.25 ± 0.37 and the protein stability index under setting [4] was found to be 5.29 ± 0.15.

Turning to GFRYSERYDPEPKSKWDEEWDKNK [CLINT1], the protein stability index is 3.73 ± 0.24 under setting [1] and 3.78 ± 0.29 under setting [2].

As to GFYFEVCGMMVESVNAKTLMSRI [PCDHGA10], the protein stability index by setting is: under setting [3], 2.81 ± 0.26; under setting [4], 2.41 ± 1.

Turning to GGGDEDGSLGSRAEPAPRAREGGG [SMAD6], the protein stability index reads like this: under setting [1], 5.55 ± 0.17; under setting [2], 5.51 ± 0.4.

In the case of GGGMRVCGFGGGAGSVFGGGFGGG [KRT15], the protein stability index runs as follows: under setting [1], 2.03 ± 0.33; under setting [2], 1.94 ± 0.24.

As for GGKGHHLPSENLGKEPLDPDPSHS [TOR1AIP2], the protein stability index is, setting by setting: under setting [1], 5.456 ± 0.051; under setting [2], 5.15 ± 0.14.

GGPGGPGSDKQQQQQHIECVVCGD [NR2F2]: the protein stability index is 5.02 ± 0.21 under setting [1] and 5.02 ± 0.45 under setting [2].

On to GGSSTSERCLLNNSLWKKNKTICK [NLN], for which the protein stability index amounted to 3.44 ± 0.16 under setting [1] and 3.47 ± 0.33 under setting [2].

As to GGVCCTVTLNFNVPGEFKQDVTVV [GFOD1], the protein stability index was found to be 2.94 ± 0.25 under setting [1] and 2.99 ± 0.16 under setting [2].

Sequence GHGEPDVLKDELQLYGDAPGEVVP [TMEM40] displayed a protein stability index under setting [1] of 5.36 ± 0.07 and a protein stability index under setting [2] of 5.35 ± 0.23.

For the sequence GHQPGTGPGDGPPEIAQNFSAPDP [SMTNL2], the protein stability index reads like this: under setting [1], 5.23 ± 0.098; under setting [2], 5.46 ± 0.15.

For GHSPARAGKQRMKEKEQENERKVA [DDIT3], the protein stability index is, setting by setting: under setting [1], 5.39 ± 0.4; under setting [2], 5.43 ± 0.37.

GHVEMVNLLLAKGANINAFDKKDR [ANKRD44]: the protein stability index turned out to be 3.41 ± 0.19 under setting [1] and 3.38 ± 0.3 under setting [2].

Consider GIAILVGSNDRVQGVISQLEDTCK [TRIM55], for which the protein stability index runs as follows: under setting [1], 2.3 ± 0.15; under setting [2], 2.43 ± 0.37.

Consider GIELMEVDPIGHLYIFATCLGLSY [MAGEA3], for which the protein stability index runs as follows: under setting [1], 2.72 ± 0.9; under setting [2], 2.85 ± 1.2.

GIGHKVDAVFMKDGFFYFFHGTRQ [MMP1]: the protein stability index reads like this: under setting [1], 2.4 ± 0.94; under setting [2], 2.13 ± 0.23.

Turning to GIHLALVELLKNLTKYPTDRDSIW [INTS4], the protein stability index reads like this: under setting [1], 2.77 ± 0.72; under setting [2], 2.75 ± 1.

Take GILTFLAVLGRYVPGLLLSYLMLV [RETREG3]: the protein stability index reads like this: under setting [1], 3.42 ± 0.28; under setting [2], 2.95 ± 0.72.

For the sequence GIPNAIISVEGINHDIRTANDGDY [CPXM2], the protein stability index by setting is: under setting [1], 4.55 ± 0.2; under setting [2], 4.71 ± 0.16.

Turning to GKAVVSHSKGHKSSRQEKRPLCAQ [ELOA2], the protein stability index reads like this: under setting [1], 4.61 ± 0.29; under setting [2], 4.64 ± 0.44.

With GKELAGTMDGEGTLFQTESPQSGS [PBXIP1], the protein stability index runs as follows: under setting [1], 5.42 ± 0.43; under setting [2], 5.38 ± 0.17.

Regarding GKEVKVNWATTPSSQKKDTSSSTV [TIA1], the protein stability index is, setting by setting: under setting [1], 4.76 ± 0.21; under setting [2], 4.92 ± 0.36.

For GKVLGKGGFAKCYEMTDLTNNKVY [PLK2], the protein stability index amounted to 2.73 ± 0.11 under setting [1] and 2.87 ± 0.34 under setting [2].

Regarding GLDGYRGYSLADWVCLAYFTSGFN [SPACA3], the protein stability index reads like this: under setting [1], 3.1 ± 1.2; under setting [2], 2.81 ± 0.7.

Regarding GLGVLRALGSRGWEPFDWGRLLEA [FANCE], the protein stability index under setting [1] was 2.88 ± 0.2 and the protein stability index under setting [2] was 2.47 ± 0.042.

Turning to GLVPSEKPPMMPQAQPAIPRPNRL [C2CD2L], the protein stability index by setting is: under setting [1], 4.65 ± 0.21; under setting [2], 4.47 ± 0.068.

In turn, GNFQGIRFHYDRNPGTDAVAQTSL [FATE1] yielded a protein stability index under setting [1] of 3.38 ± 0.22 and a protein stability index under setting [2] of 3.42 ± 0.16.

As for GNLGSLEKSVTKDAEGLAARDVQK [INTS4], the protein stability index is, setting by setting: under setting [1], 5.46 ± 0.089; under setting [2], 5.42 ± 0.12.

As for GNNEDVSFSRPADLDLIQSTPFKP [MFF], the protein stability index under setting [1] stood at 4.36 ± 0.059 and the protein stability index under setting [2] is 5.06 ± 0.56.

For the sequence GPLPPAPAMVRISKPKTFQAYLDD [YPEL3], the protein stability index reads like this: under setting [1], 3.73 ± 0.18; under setting [2], 4.33 ± 0.37.

GPVQVVLVQKDQHSFELDEKALAS [ATL3]: the protein stability index reads like this: under setting [1], 3.65 ± 0.18; under setting [2], 4.06 ± 0.2.

As for GQGLKSYMTKPSKSLLPHLKTGNS [RTP4], the protein stability index by setting is: under setting [1], 3.62 ± 0.16; under setting [2], 3.63 ± 0.25.

As to GRAENGERSDLEEDNEREGTENGA [ZC3H15], the protein stability index reads like this: under setting [1], 5.57 ± 0.068; under setting [2], 5.57 ± 0.16.

Take GRPIPGTSTRYEQPKCDNTARAHP [SMOC2]: the protein stability index under setting [1] was 4.76 ± 0.4 and the protein stability index under setting [2] stood at 4.78 ± 0.18.

Consider GRSRLYHDGKNQPGVAYPAFLGPD [SPSB4], for which the protein stability index was 3.84 ± 0.23 under setting [1] and 3.78 ± 0.19 under setting [2].

In turn, GSDLGGPLPTDPMLGLALGGLVVS [TSPAN10] gave a protein stability index under setting [1] of 2.88 ± 0.2 and a protein stability index under setting [2] of 2.66 ± 0.19.

Sequence GSEMGLSSHLQSSKAGPTRIFTSN [KLHL13] returned a protein stability index under setting [1] of 3.78 ± 0.17 and a protein stability index under setting [2] of 3.77 ± 0.23.

For the sequence GSIGVWHYICPRLGGIGFSSCIVC [SLC6A17], the protein stability index by setting is: under setting [1], 2.58 ± 0.054; under setting [2], 2.41 ± 1.2.

As to GSKNVFSTFRTPAVLFTGIVALYI [ATL3], the protein stability index runs as follows: under setting [1], 3.11 ± 0.7; under setting [2], 2.67 ± 0.57.

As for GSRAGASSFSDPFFVVETLCIIWF [KCNA3], the protein stability index by setting is: under setting [1], 3.04 ± 0.93; under setting [2], 2.53 ± 0.75.

With GSRLAEFGAAGVNRLSIGLQSLDD [RSAD1], the protein stability index runs as follows: under setting [1], 4.22 ± 0.48; under setting [2], 4.09 ± 0.34.

For the sequence GTLLFYIGGHLVRDNDHPDHSSRE [FUT8], the protein stability index by setting is: under setting [1], 2.3 ± 0.59; under setting [2], 2.55 ± 0.58.

As to GTLTPRMTTDFDLSLDNSPLLQSI [TRIM9], the protein stability index under setting [1] was 3.43 ± 0.28 and the protein stability index under setting [2] was found to be 3.48 ± 0.36.

On to GTYSQALNDAKRELRFLLVYLHGD [FAF2], for which the protein stability index was found to be 2.41 ± 0.47 under setting [1] and 2.16 ± 0.32 under setting [2].

In the case of GVIATKQFSRGDFVVEYHGDLIEI [KMT5A], the protein stability index amounted to 2.37 ± 0.31 under setting [1] and 1.68 ± 0.17 under setting [2].

With GYLDYRKKAIKDLGISPSTCSFNP [GLT8D2], the protein stability index stood at 2.85 ± 0.22 under setting [1] and 2.89 ± 0.34 under setting [2].

On to GYLLSFHTPGGQNQEILLPGGITS [TNXB], for which the protein stability index is, setting by setting: under setting [1], 2 ± 0.36; under setting [2], 2 ± 0.41.
